Experimental data published in paper PMC9098913, “In vitro reconstitution of Escherichia coli divisome activation” (Nature Communications, 2022).
Where two headings read alike, the source gives them in different places.

Tested on: FtsZ
Settings: for FtsZ autocorrelation T: mean; for Autocorrelation Decay Tau: Fig. S2i, + FtsN
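Also: FtsZ filament patterns imaged by time-lapse TIRF microscopy, one frame per 2 s, with ATP and GTP, Pearson correlation of first frame versus later frames, monoexponential fit, slower decay means persistent structures.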

Method: Additionally, the reaction chamber contained 4 mM ATP and 4 mM GTP, as well as a scavenging system to minimize photobleaching effects: 30 mM d-glucose, 0.050 mg ml^−1 Glucose Oxidase, 0.016 mg ml^−1 Catalase, 1 mM DTT and 1 mM Trolox. Prior addition of all components a corresponding buffer volume was removed from the chamber to obtain a total reaction volume of 100 µl. The dynamic protein pattern was monitored by time-lapse TIRF microscopy at one frame per 2 s and 50 ms exposure time.
To measure reorganization dynamics of FtsZ filaments, we used a temporal correlation analysis based on the Image CorrelationJ 1o plugin. We quantified the PCC between the first frame to subsequent frames with increasing time lag (∆t). The decrease in the PCC was plotted against ∆t to obtain autocorrelation curves. Slower decay indicates more persistent structures. The rates of decay were extracted by fitting monoexponential decay to the autocorrelation curves y=a⋅e^−b⋅t+k , where a is the starting point, b is the decay rate and k is the final offset. The half time of the monoexponential decay was calculated via the decay rate.

B1: FtsA R286W (protein)
chain: MIKATDRKLVVGLEIGTAKVAALVGEVLPDGMVNIIGVGSCPSRGMDKGGVNDLESVVKCVQRAIDQAELMADCQISSVYLALSGKHISCQNEIGMVPISEEEVTQEDVENVVHTAKSVRVRDEHRVLHVIPQEYAIDYQEGIKNPVGLSGVRMQAKVHLITCHNDMAKNIVKAVERCGLKVDQLIFAGLASSYSVLTEDERELGVCVVDIGGGTMDIAVYTGGALRHTKVIPYAGNVVTSDIAYAFGTPPSDAEAIKVRHGCALGSIVGKDESVEVPSVGGRPPWSLQRQTLAEVIEPRYTELLNLVNEEILQLQEKLRQQGVKHHLAAGIVLTGGAAQIEGLAACAQRVFHTQVRIGAPLNITGLTDYAQEPYYSTAVGLLHYGKESHLNGEAEVEKRVTASVGSWIKRLNSWLRKEF
modifications: Cy3 or Cy5 at the N-terminus in the labelled form (labelled CLEPTGG peptide conjugated to the 5xGly tag by sortagging); unlabelled protein also used; left off: TwinStrep-SUMO, N-terminal, cleaved | 5x
Question: How did the FtsZ autocorrelation (0.1 µM FtsA, Exp. 1) turn out when B1 was run?
Answer: 160.44 s

Question: What about the FtsZ autocorrelation (0.1µM FtsA, Exp. 2) of the same molecule?
Answer: 218.46 s

Question: And the “FtsZ autocorrelation T” value (0.10 µM FtsA)?
Answer: 194.36 s

Question: What about the FtsZ autocorrelation (0.2 µM FtsA, Exp. 1) of the same molecule?
Answer: 153.77 s

Question: And the FtsZ autocorrelation (0.2µM FtsA, Exp. 2)?
Answer: 78.66 s

Question: And the “FtsZ autocorrelation T” value (0.20 µM FtsA)?
Answer: 136.59 s

Question: What about the FtsZ autocorrelation (0.4 µM FtsA, Exp. 1) of the same molecule?
Answer: 331.53 s

Question: And the FtsZ autocorrelation (0.4µM FtsA, Exp. 2)?
Answer: 146.15 s

Question: What about the “FtsZ autocorrelation T” value (0.40 µM FtsA) of the same molecule?
Answer: 186.04 s

Question: What about the FtsZ autocorrelation (0.8 µM FtsA, Exp. 1) of the same molecule?
Answer: 113.86 s

Question: What about the FtsZ autocorrelation (0.8µM FtsA, Exp. 2) of the same molecule?
Answer: 144.33 s

Question: And the “Autocorrelation Decay Tau” value (replicate 1)?
Answer: 4.55 min

Question: What about the “Autocorrelation Decay Tau” value (replicate 2) of the same molecule?
Answer: 8.41 min

Question: And the “Autocorrelation Decay Tau” value (replicate 3)?
Answer: 7.40 min
